Results on one molecule are retold here after patent US20220332804A1 (CSL INNOVATION, published 2022).

Common to all, as to experiment: SPR, antibody captured, C2 as analyte;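 note: biacore SPR at 37 °C, anti-C2 mAbs captured via goat anti-human IgG on CM5 chips, double-referenced sensorgrams fit to a 1:1 kinetic or steady-state model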
The target of experiment [1] is T1, human C2 K430A (human, UniProt P06681 21-752).
T1 sequence: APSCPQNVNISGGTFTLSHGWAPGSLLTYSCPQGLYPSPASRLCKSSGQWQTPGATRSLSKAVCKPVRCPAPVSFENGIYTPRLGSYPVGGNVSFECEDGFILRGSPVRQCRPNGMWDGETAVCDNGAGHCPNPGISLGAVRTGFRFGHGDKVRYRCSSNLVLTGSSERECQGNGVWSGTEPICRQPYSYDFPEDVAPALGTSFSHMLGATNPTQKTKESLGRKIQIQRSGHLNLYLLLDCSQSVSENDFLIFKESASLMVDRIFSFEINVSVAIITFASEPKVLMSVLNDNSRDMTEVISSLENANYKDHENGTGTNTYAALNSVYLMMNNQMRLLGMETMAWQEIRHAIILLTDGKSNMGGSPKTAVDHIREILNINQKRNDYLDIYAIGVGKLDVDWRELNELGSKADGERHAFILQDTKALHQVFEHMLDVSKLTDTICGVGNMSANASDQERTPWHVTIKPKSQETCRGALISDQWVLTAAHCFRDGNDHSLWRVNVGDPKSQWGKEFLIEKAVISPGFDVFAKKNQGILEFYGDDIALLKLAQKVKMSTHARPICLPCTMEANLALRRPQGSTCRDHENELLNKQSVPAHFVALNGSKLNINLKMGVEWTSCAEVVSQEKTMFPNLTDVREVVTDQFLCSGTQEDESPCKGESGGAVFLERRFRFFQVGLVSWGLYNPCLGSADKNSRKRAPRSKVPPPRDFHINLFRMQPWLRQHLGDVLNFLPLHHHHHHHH

The target of experiment [2] is T2, human C2 R719A (human, UniProt P06681 21-752).
T2 sequence: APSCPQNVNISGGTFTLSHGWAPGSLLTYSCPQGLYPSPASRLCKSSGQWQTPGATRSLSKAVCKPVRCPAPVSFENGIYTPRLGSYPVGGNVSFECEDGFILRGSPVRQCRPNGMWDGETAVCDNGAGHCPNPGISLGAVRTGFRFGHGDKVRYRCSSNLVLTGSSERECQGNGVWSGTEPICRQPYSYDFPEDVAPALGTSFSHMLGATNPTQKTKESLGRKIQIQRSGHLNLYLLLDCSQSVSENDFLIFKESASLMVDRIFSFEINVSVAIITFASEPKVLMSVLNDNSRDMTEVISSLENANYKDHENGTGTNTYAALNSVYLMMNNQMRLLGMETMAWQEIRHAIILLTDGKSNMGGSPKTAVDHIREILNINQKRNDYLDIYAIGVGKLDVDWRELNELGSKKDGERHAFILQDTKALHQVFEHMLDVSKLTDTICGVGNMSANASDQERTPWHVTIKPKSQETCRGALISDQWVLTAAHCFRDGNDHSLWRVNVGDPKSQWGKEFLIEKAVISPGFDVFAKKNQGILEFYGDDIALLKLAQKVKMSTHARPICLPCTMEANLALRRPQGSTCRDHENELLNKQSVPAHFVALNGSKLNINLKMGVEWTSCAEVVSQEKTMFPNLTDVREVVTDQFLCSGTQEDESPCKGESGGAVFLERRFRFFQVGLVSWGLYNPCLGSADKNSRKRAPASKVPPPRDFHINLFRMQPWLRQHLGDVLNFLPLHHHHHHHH

The target in experiment [3] is T3, human C2 L701A (human, UniProt P06681 21-752).
T3 sequence: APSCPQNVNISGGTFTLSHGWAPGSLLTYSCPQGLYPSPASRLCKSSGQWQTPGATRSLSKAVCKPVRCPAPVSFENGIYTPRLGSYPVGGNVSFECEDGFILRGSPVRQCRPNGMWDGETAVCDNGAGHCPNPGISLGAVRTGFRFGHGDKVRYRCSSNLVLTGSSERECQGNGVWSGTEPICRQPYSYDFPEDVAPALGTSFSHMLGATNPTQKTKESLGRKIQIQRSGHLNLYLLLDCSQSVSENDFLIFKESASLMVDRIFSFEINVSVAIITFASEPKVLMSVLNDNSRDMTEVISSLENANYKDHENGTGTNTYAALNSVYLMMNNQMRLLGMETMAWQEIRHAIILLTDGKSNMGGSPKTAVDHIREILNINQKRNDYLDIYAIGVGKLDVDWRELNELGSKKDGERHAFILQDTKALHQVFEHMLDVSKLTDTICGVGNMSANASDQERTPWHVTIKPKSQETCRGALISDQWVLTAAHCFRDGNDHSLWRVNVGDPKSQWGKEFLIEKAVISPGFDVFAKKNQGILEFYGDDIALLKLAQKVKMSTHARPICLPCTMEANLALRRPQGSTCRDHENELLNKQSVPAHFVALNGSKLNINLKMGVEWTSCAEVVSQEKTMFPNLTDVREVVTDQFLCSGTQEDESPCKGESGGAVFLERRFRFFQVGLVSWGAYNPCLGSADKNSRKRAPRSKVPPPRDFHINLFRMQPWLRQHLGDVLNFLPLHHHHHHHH

Experiment [4] concerns the target T4, human C2 V455A (human, UniProt P06681 21-752).
T4 sequence: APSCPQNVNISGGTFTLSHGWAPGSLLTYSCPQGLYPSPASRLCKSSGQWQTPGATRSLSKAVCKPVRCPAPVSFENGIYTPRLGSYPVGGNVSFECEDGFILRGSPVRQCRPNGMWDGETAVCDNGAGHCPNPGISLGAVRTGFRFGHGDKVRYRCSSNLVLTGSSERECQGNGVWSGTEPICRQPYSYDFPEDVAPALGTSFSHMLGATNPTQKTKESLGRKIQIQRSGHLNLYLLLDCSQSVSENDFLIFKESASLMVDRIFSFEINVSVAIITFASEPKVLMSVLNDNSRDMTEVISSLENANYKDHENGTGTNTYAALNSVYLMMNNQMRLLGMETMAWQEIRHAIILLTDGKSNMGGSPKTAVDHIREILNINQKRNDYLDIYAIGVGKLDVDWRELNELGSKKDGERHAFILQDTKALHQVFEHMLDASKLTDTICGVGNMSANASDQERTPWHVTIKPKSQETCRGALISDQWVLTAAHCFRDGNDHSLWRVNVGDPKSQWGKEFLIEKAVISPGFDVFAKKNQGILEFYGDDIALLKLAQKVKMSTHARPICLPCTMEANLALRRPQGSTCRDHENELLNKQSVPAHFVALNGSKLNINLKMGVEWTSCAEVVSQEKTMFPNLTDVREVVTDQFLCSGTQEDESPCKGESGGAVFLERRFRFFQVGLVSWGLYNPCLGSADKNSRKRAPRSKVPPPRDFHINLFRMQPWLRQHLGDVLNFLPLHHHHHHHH

B1: RF16-226 (antibody, human IgG4 S228P, lambda)
heavy: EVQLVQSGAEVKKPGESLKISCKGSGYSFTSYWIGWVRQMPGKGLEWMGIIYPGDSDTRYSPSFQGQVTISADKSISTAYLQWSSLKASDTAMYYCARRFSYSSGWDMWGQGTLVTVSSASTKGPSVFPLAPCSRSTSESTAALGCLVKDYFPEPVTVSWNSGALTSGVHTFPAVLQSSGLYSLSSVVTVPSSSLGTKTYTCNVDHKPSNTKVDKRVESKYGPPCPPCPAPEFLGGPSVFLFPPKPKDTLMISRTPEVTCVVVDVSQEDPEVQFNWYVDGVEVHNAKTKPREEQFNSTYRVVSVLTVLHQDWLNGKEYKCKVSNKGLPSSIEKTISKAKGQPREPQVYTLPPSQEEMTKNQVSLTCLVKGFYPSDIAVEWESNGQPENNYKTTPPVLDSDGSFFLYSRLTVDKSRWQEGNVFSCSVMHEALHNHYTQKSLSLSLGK
light: SYELTQPPSVSVSPGQTARITCSGDALTSKYVAWYQQKSGLAPLLVIYEDTRRPSGIPAKFSGSSSGSVATLTISGAHGDDEADYYCYSTDASGHQRVFGGGTKLTVLSQPKAAPSVTLFPPSSEELQANKATLVCLISDFYPGAVTVAWKADGSPVKAGVETTKPSKQSNNKYAASSYLSLTPEQWKSHRSYSCQVTHEGSTVEKTVAPTECS
notes: pH-dependent anti-C2 antibody from a phage display library; also called WT
For B1, the Kd in experiment [1] is 62 nM; in experiment [2] it was 8.5 nM; in experiment [3] it was 165 nM; in experiment [4] it was 9 nM.

The Kd is the free concentration of one partner at which half of the binding sites on the other are occupied at equilibrium, for simple one-to-one binding. A lower Kd goes with tighter binding.
